Test results reported in US20240140995A1.

Key:
E. coli ColE-7 (E. coli) [1] = target: E. coli ColE-7 (E. coli) (UniProt Q47112); test: SPR Biacore T200, 37 C, single cycle kinetics
[2] = target: GthCol (Geobacillus thermoglucosidasius C-terminal Colicin DNase domain, C36A, H78A, engineered) (Geobacillus thermoglucosidasius); test: SPR Biacore T200, 37 C, single cycle kinetics
[3] = target: GthCol (Geobacillus thermoglucosidasius C-terminal Colicin DNase domain, C36A, H78A, engineered) (Geobacillus thermoglucosidasius); test: SPR Biacore T200, 37 C, single cycle kinetics; […]
E. coli ColE-7 (E. coli) [4] = target: E. coli ColE-7 (E. coli) (UniProt Q47112); test: SPR Biacore T200, 37 C, single cycle kinetics; biotinylated immunity protein on streptavidin sensor, colicin analyte 1.1-90 nM

With “GthIM (Geobacillus thermoglucosidasius immunity protein, C18A, engineered), singly biotinylated” the complex half-life t/2-diss (E. coli ColE-7 (E. coli) [1]) was < 1 min, the fold less affinity than GthIM/GthCol (E. coli ColE-7 (E. coli) [1]) was 65000 fold and the fold stronger than the IM7/ColE7 interaction [2] was > 30 fold. For the same substance, the GthCol concentration at which GthIM saturation is achieved [3] was 3 nM, the Kd [3] was < 0.2 pM and the MR (Molar Ratio, binding stoichiometry) [3] was 1.1. For the same substance, the koff [3] was < 1e-05 s⁻¹, the kon [3] was > 5e+07 M⁻¹ s⁻¹ and the MR (Molar Ratio, binding stoichiometry) (E. coli ColE-7 (E. coli) [4]) was 1.2.
